Assay results as given in publication PMC5401885, “Isoprenoid Pyrophosphate-Dependent Transcriptional Regulation of Carotenogenesis in Corynebacterium glutamicum” (Frontiers in Microbiology, 2017).

How the values were obtained:
[1] = biological target: T1, CrtR (His-tagged) (Corynebacterium glutamicum ATCC 13032) (UniProt Q8NSP1); assay: EMSA; conditions: 50 mM Tris-HCl pH 7.5, 10% glycerol, 50 mM KCl, 10 mM MgCl2, 0.5 mM EDTA, 20 uL, 90 ng DNA, 30 min at room temperature; 6% DNA retardation gel
T1 sequence: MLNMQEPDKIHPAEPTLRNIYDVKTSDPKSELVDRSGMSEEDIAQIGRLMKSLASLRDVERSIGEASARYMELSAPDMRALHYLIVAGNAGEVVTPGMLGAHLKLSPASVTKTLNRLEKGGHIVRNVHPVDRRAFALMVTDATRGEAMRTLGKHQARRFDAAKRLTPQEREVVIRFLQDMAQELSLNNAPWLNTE

[2] = biological target: T2, CrtR (CrtRHis6, His-tagged CrtR) (Corynebacterium glutamicum, UniProt Q8NSP1); assay: EMSA, loss of CrtR binding to crtE-crtR intergenic DNA; conditions: 30-fold molar excess CrtR over DNA; 15 min pre-incubation, room temperature; 50 mM Tris-HCl pH 7.5, 50 mM KCl, 10 mM MgCl2
T2 construct: gene Cgl0627; full length, 195 aa; N-terminal His-tag (pET16b, decahistidine) kept; expressed in E. coli BL21(DE3); Ni-NTA purified; cloning primers give N-terminus MLNMQE and C-terminus WLNTE
T2 sequence (Q8NSP1 1-195): T1 sequence

[3] = biological target: T2, CrtR (CrtRHis6, His-tagged CrtR); assay: as above; conditions: 30-fold molar excess CrtR over DNA; 15 min pre-incubation, room temperature; 50 mM Tris-HCl pH 7.5, 50 mM KCl, 10 mM MgCl2; remark: listed apart in the source

Row | Molecule | binding [1] | also measured
1 | AAAAATATTAACTCATGGGATACTATAAATTTCTTGTAGGCACATTATTTTTATGGACCCAAATTCACACTTTCTGTACTTCATCAAAATAAAGCGCCATATACAACGATTGGGAATTTTTGCGAGATAACTGGCCGTGTGATACTCGA (double strand) [fragment C] | binds | –
2 | CACCAATACTACGTTCCACATCGCGAAGACTGGCCAACGATTTCATTAGCCGCCCAATTTGCGCAATGTCTTCTTCCGACATGCCAGAACGATCAACTAATTCACTTTTGGGATCACTAGTTTTAACGTCATAAATATTACGAAGTGTAGGTTCTGCCGGATGGATTTTATCTGGTTCCTGCATATTCAGCATAGTAATCACCTTTTTCTACAAAGTCAGATAAAGTTTATTTTT (double strand) [fragment G] | no binding | –
3 | TCGAGTATCACACGGCCAGTTATCTCGCAAAAATTCCCAATCGTTGTATATGGCGCTTTATTTTGATGAAGTACAGAAAGTGTGAATTTGGGTCCATAAAAATAATGTGCCTACAAGCCCGGGATAGTATCCCATGAGGGCCTATTTTT (double strand) | no binding | –
4 | CATAAAAATAATGTGCCTACAAGAAATTTATAGTATCCCATGAGTTAATATTTTTAAAAATAAACTTTATCTGACTTTGTAGAAAAAGGTGATTACTATGCTGAATATGCAGGAACCAGATAAAATCCATCCGGCAGAACCTACACTTCGTAATATTTATGACGTTAAAACTAGTGATCCCAAAAGTGAATTAGTTGATCGTTCTGGCATGTCGGAAGAAGACATTGCGCAAATTGGGCGGCTAATGAAATCGTTGGCCAGTCTTCGCGATGTGGAACGTAGTATTGGTG (double strand) [fragment D] | binds | –
5 | C=C(C)CCOP(=O)(O)OP(=O)(O)O [IPP, isopentenyl pyrophosphate] | – | EMSA, loss of CrtR binding to crtE-crtR intergenic DNA [2]: FPP, GPP, IPP and DMAPP exerted similar effects on CrtR binding in vitro
6 | CACCAATACTACGTTCCACATCGCGAAGACTGGCCAACGATTTCATTAGCCGCCCAATTTGCGCAATGTCTTCTTCCGACATGCCAGAACGATCAACTAATTCACTTTTGGGATCACTAGTTTTAACGTCATAAATATTACGAAGTGTAGGTTCTGCCGGATGGATTTTATCTGGTTCCTGCATATTCAGCATAGTAATCACCTTTTTCTACAAAGTCAGATAAAGTTTATTTTTAAAAATATTAACTCATGGG (double strand) [fragment F] | binds | –
7 | GTTCGCTACGTCCGAGTGATCACCTACAAGGACGTCAACATCGAAGAATTAGATAAGCCTGACATCATCATGCCTGAG (double strand) [cg2228 upstream fragment] | no binding | –
8 | AAAAATATTAACTCATGGGATACTATCCCGGGCTTGTAGGCACATTATTTTTATGGACCCAAATTCACACTTTCTGTACTTCATCAAAATAAAGCGCCATATACAACGATTGGGAATTTTTGCGAGATAACTGGCCGTGTGATACTCGA (double strand) [fragment H (motif 2 AAATTT to CCCGGG)] | binds | –
9 | ATTCAGCATAGTAATCACCTTTTTCTACAAAGTCAGATAAAGTTTATTTTTAAAAATATTAACTCATGGGATACTATAAATTTCTTGTAGGCACATTATTTTTATGGACCCAAATTCACACTTTCTGTACTTCATCAAAATAAAGCGCCATATACAACGATTGGGAATTTTTGCGAGATAACTGGCCGTGTGATACTCGA (double strand) [fragment A (full crtE-crtR intergenic region)] | binds | –
10 | AACTCATGGGATACTATAAATTTCTTGTAGGCACATTATTTTTATGGACCCAAATTCACACTTTCTGTACTTCATCAAAATAAAGCGCCATATACAACGATTGGGAATTTTTGCGAGATAACTGGCCGTGTGATACTCGA (double strand) [fragment B] | no binding | –
11 | CC(C)=CCOP(=O)(O)OP(=O)(O)O [DMAPP, dimethylallyl pyrophosphate] | – | EMSA, loss of CrtR binding to crtE-crtR intergenic DNA [2]: FPP, GPP, IPP and DMAPP exerted similar effects on CrtR binding in vitro
12 | CC(C)=CCC/C(C)=C/CC/C(C)=C/COP(=O)(O)OP(=O)(O)O [FPP, farnesyl pyrophosphate] | – | EMSA, loss of CrtR binding to crtE-crtR intergenic DNA [2]: farnesyl pyrophosphate (FPP) and GGPP perturbed binding of His-tagged CrtR to the intergenic region
13 | CC(C)=CCC/C(C)=C/CC/C(C)=C/CC/C(C)=C/COP(=O)(O)OP(=O)(O)O [GGPP] | – | lowest effective concentration [3]: 50 µM
14 | AAAAATAGGCCCTCATGGGATACTATAAATTTCTTGTAGGCACATTATTTTTATGGACCCAAATTCACACTTTCTGTACTTCATCAAAATAAAGCGCCATATACAACGATTGGGAATTTTTGCGAGATAACTGGCCGTGTGATACTCGA (double strand) [fragment I (motif 1 TTAA to GGCC)] | no binding | –
15 | CACCAATACTACGTTCCACATCGCGAAGACTGGCCAACGATTTCATTAGCCGCCCAATTTGCGCAATGTCTTCTTCCGACATGCCAGAACGATCAACTAATTCACTTTTGGGATCACTAGTTTTAACGTCATAAATATTACGAAGTGTAGGTTCTGCCGGATGGATTTTATCTGGTTCCTGCATATTCAGCATAGTAATCACCTTTTTCTACAAAGTCAGATAAAGTTTATTTTTAAAAATATTAACTCATGGGATACTATAAATTTCTTGTAGGC (double strand) [fragment E] | binds | –
16 | CC(C)=CCC/C(C)=C/COP(=O)(O)OP(=O)(O)O [GPP, geranyl pyrophosphate] | – | EMSA, loss of CrtR binding to crtE-crtR intergenic DNA [2]: FPP, GPP, IPP and DMAPP exerted similar effects on CrtR binding in vitro
